Test results published in IntAct's records for PubMed 15509585.

B1: Thioredoxin-like protein slr1139 (Synechocystis sp. (strain PCC 6803 / Kazusa)), P73263 (parent)
chain: MSLLEITDAEFEQETQGQTKPVLVYFWASWCGPCRLMAPAIQAIAKDYGDKLKVLKLEVDPNPAAVAQCKVEGVPALRLFKNNELVMTHEGAIAKPKLLELLKEELDFI
partner: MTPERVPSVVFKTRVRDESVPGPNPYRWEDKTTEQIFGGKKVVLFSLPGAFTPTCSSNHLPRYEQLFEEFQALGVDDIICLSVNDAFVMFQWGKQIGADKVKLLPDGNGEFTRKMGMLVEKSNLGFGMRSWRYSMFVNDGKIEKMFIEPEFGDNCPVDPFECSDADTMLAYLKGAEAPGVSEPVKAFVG
B2: Thioredoxin-like protein slr1139 (Synechocystis sp. (strain PCC 6803 / Kazusa)), P73263 (parent)
chain: B1 chain
partner: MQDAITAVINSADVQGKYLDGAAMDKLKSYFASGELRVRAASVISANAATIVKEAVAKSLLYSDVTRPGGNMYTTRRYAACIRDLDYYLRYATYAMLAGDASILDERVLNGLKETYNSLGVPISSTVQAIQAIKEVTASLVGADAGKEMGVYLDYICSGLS
B3: Thioredoxin-like protein slr1139 (Synechocystis sp. (strain PCC 6803 / Kazusa)), P73263 (parent)
chain: B1 chain
partner: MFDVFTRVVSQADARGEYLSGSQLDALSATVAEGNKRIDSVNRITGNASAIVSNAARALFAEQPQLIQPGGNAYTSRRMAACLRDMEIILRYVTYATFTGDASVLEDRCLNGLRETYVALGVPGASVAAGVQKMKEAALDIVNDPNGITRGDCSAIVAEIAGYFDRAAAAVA

Variants of: B1
Conditions: with prx5_syny3 prx5, P73728

| effect of a mutation on the interaction | Variant |
| --- | --- |
| increasing interaction | C34S |

Variants of: B2
Conditions: with apcb_syny3 apcB

| effect of a mutation on the interaction | Variant |
| --- | --- |
| increasing interaction | C34S |

Variants of: B3
Conditions: with phcb_syny3 cpcB

| effect of a mutation on the interaction | Variant |
| --- | --- |
| increasing interaction | C34S |
